What is called stoichiometry N is the number of molecules, sites or subunits per partner or assembly.

The target of the assay is IFT dynein heavy chain (D1bHC) (Chlamydomonas reinhardtii (endogenous in cc4533 and wdr92-1 cells)) (UniProt Q9SMH5). The experiment in a line: SEC.

As for “IFT dynein heavy chain (D1bHC), Q9SMH5 1-4334”, the stoichiometry N came out at 2.

For the origin of these results see article PMC6727741.
